Measured values reported in US20230357429A1 (JANUX THERAPEUTICS, published 2023).
Changes are numbered by the printed parent chain. Names may count otherwise. Where no end group is shown, it is not given here.

T1: Human TROP2 Full length (human, UniProt P09758 31-323)
T1 sequence: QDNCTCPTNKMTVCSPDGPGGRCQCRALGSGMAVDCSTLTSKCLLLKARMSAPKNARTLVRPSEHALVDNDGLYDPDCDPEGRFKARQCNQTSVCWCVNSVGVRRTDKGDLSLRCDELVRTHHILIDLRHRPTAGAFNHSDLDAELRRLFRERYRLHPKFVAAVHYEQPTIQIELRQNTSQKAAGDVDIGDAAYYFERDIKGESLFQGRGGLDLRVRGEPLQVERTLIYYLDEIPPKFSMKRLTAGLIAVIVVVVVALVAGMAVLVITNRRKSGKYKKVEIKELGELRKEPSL

T2: Cyno TROP2 Full length (cynomolgus monkey, UniProt P09758 31-323 (human entry))
T2 chain: T1 sequence with M32V, S63N, I200V, M262V, T268S

T3: Human TROP2 ECD (31-274 AA) (human, UniProt P09758 31-274, biotinylated)
T3 construct: also called biotinylated TROP2; TROP2-biotin
T3 sequence: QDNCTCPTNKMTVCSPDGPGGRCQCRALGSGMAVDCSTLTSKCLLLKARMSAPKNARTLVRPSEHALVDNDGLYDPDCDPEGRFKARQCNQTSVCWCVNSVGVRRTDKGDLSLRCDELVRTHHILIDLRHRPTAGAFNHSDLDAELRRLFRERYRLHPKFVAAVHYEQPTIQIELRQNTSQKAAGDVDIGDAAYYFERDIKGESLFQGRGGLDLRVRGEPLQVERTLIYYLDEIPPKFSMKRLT

B1: PC-34 (bispecific antibody)
light: GGVDFCALYHWPICYQGGGGSGGLSGRSDAGSPLGLAGSGGSDIQLTQSPSSLSASVGDRVSITCKASQDVSIAVAWYQQKPGKAPKLLIYSASYRYTGVPDRFSGSGSGTDFTLTISSLQPEDFAVYYCQQHYITPLTFGAGTKVEIKRTVAAPSVFIFPPSDEQLKSGTASVVCLLNNFYPREAKVQWKVDNALQSGNSQESVTEQDSKDSTYSLSSTLTLSKADYEKHKVYACEVTHQGLSSPVTKSFNRGEC
heavy: not shown
notes: Masked polypeptide complex: anti-TROP2 F108A, anti-CD3 H101A; CD3 mask …
B2: PC-42 (bispecific antibody)
light: B1 light
heavy: EVQLVESGGGLVQPGGSLRLSCAASGSTFYTAVMGWVRQAPGKGLEWVAAIRWTALTTSYADSVKGRFTISRDGAKTTLYLQMNSLRPEDTAVYYCAARGTLGLFTTADSYDYWGQGTLVTVSSGGGGSGGGSGGASQCLGPEWEVCPYGGGGSGGGLSGRSDAGSPLGLAGSGGGSEVQLVESGGGLVQPGGSLKLSCAASGFTFNKYAMNWVRQASGKGLEWVGRIRSKYNNYATYYADSVKDRFTISRDDSKNTAYLQMNSLKTEDTAVYYCVRHGNFGNSYISYWAYWGQGTLVTVSSGGGGSGGGGSGGGGSQTVVTQEPSFSVSPGGTVTLTCRSSTGAVTSGNYANWVQQTPGQAPRGLIGGTKFLAPGVPDRFSGSILGNKAALTITGAQADDESDYYCVLWYSNRWVFGGGTKLTVLGGGGSQVQLQQSGSELKKPGASVKVSCKASGYTFTNYGMNWVKQAPGQGLKWMGWINTYTGEPTYTDDFKGRFAFSLDTSVSTAYLQISSLKADDTAVYFCARGGFGSSYWYADVWGQGSLVTVSSASTKGPSVFPLAPSSKSTSGGTAALGCLVKDYFPEPVTVSWNSGALTSGVHTFPAVLQSSGLYSLSSVVTVPSSSLGTQTYICNVNHKPSNTKVDKKVEPKSC
notes: Masked polypeptide complex: anti-TROP2 F108A, anti-CD3 with P41S, A49G, N87S ; E227D
B3: PC-39 (bispecific antibody)
light: B1 light
heavy: EVQLVESGGGLVQPGGSLRLSCAASGSTFYTAVMGWVRQAPGKGLEWVAAIRWTALTTSYADSVKGRFTISRDGAKTTLYLQMNSLRPEDTAVYYCAARGTLGLFTTADSYDYWGQGTLVTVSSGGGGSGGGSGGYLCGPDGDETLACYGGGGSGGGLSGRSDAGSPLGLAGSGGGSEVQLVESGGGLVQPGGSLKLSCAASGFTFNKYAMNWVRQASGKGLEWVGRIRSKYNNYATYYADSVKDRFTISRDDSKNTAYLQMNSLKTEDTAVYYCVRHGNFGNSYISYWAYWGQGTLVTVSSGGGGSGGGGSGGGGSQTVVTQEPSFSVSPGGTVTLTCRSSTGAVTSGNYANWVQQTPGQAPRGLIGGTKFLAPGVPDRFSGSILGNKAALTITGAQADDESDYYCVLWYSNRWVFGGGTKLTVLGGGGSQVQLQQSGSELKKPGASVKVSCKASGYTFTNYGMNWVKQAPGQGLKWMGWINTYTGEPTYTDDFKGRFAFSLDTSVSTAYLQISSLKADDTAVYFCARGGFGSSYWYADVWGQGSLVTVSSASTKGPSVFPLAPSSKSTSGGTAALGCLVKDYFPEPVTVSWNSGALTSGVHTFPAVLQSSGLYSLSSVVTVPSSSLGTQTYICNVNHKPSNTKVDKKVEPKSC
notes: Masked polypeptide complex: anti-TROP2 F108A, anti-CD3 with P41S, A49G, N87S ; E227D; CD3 mask YLCGPDGDETLACY
B4: PC-45 (bispecific antibody)
light: B1 light
heavy: not shown
notes: Masked polypeptide complex: anti-TROP2 F108A, anti-CD3 N30Q, I109V, G172A, V231A; CD3 mask …
B5: PC-36 (bispecific antibody)
light: B1 light
heavy: not shown
notes: Masked polypeptide complex: anti-TROP2 F108A, anti-CD3 F104A
B6: PC-37 (bispecific antibody)
light: B1 light
heavy: not shown
notes: Masked polypeptide complex: anti-TROP2 F108A, anti-CD3 F240A; CD3 mask …
B7: PC-43 (bispecific antibody)
light: B1 light
heavy: B2 heavy with A136G, Q138A
notes: as for B2
B8: PC-50 (bispecific antibody)
light: B1 light
heavy: not shown
notes: Masked polypeptide complex: anti-TROP2 F108A, anti-CD3 H101A
B9: PC-44 (bispecific antibody)
light: B1 light
heavy: not shown
notes: as for B4
B10: PC-51 (bispecific antibody)
light: B1 light
heavy: not shown
notes: Masked polypeptide complex: anti-TROP2 F108A, anti-CD3 L232A
B11: PC-35 (bispecific antibody)
light: B1 light
heavy: not shown
notes: as for B1
B12: PC-52 (bispecific antibody)
light: B1 light
heavy: not shown
notes: Masked polypeptide complex: anti-TROP2 F108A, anti-CD3 N236A
B13: PC-38 (bispecific antibody)
light: B1 light
heavy: not shown
notes: as for B6
B14: PC-41 (bispecific antibody)
light: B1 light
heavy: B3 heavy with Y136V, L137Y, D141E, G142F, T145S, L146V, A147G, Y149A
notes: as for B2
B15: PC-46 (bispecific antibody)
light: B1 light
heavy: not shown
notes: Masked polypeptide complex: anti-TROP2 F108A, anti-CD3 N30Q, I109V, G172A, V231A

biological target: T4, TBD-17 (HC S104A); test: competition ELISA, peptide vs Fab binding to captured biotin-TROP2
T4 construct: Fab; also called HC S104A mutant
T4 sequence (VH, as listed by the source, chain 1 of 2, one chain of several): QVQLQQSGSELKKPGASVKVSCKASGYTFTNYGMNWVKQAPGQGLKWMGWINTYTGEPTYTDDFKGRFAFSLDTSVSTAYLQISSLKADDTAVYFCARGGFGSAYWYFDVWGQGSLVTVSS
Method: (§1) ELISA-based competitive inhibition studies were used to test the ability of each peptide to inhibit the TBDs from binding to TROP2. […] Inhibitory peptides were titrated in a dilution series and pre-incubated with a constant concentration of antibody. Inhibitory peptide and antibody mixtures were then incubated on the antigen captured plates. A horseradish peroxidase conjugate secondary antibody was then used to detect the antibody binding to the plate-bound antigen. The ELISA signal was plotted versus log-scale peptide concentration. A dose dependent decrease of signal was indicative of peptides that compete for antibody binding to the cognate antigen. Graphpad Prism software was used to calculate the inhibitory concentrations of peptide required to achieve 50% maximal signal (IC₅₀s).

| IC50 | Binder |
| --- | --- |
| 0.89 µM | VDFCGLYHWPICYQ (cysteine pairing not given here; also: biotinylated, site not given here) [Peptide-8] |

biological target: T5, TBD-22 (HC D109A); test: as above
T5 construct: Fab; also called HC D109A mutant
T5 sequence (VH, as listed by the source, chain 1 of 2, one chain of several): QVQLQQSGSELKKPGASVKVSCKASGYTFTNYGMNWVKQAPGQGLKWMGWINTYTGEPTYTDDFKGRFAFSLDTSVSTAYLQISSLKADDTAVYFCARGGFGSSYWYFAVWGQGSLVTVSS
Method: as §1

| IC50 | Binder |
| --- | --- |
| 0.02 µM | VDFCGLYHWPICYQ (cysteine pairing not given here; also: biotinylated, site not given here) [Peptide-8] |

biological target: T6, TBD-21 (HC F108A); test: as above
T6 construct: Fab; also called HC F108A mutant
Method: as §1

| IC50 | Binder |
| --- | --- |
| 0.61 µM | VDFCGLYHWPICYQ (cysteine pairing not given here; also: biotinylated, site not given here) [Peptide-8] |

biological target: T7, TBD-11 (HC R98A); test: as above
T7 construct: Fab; also called HC R98A mutant
T7 sequence (VH, as listed by the source, chain 1 of 2, one chain of several): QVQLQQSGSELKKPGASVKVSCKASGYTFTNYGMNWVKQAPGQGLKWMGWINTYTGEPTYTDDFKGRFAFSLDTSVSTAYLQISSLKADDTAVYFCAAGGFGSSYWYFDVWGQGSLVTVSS
Method: as §1

| IC50 | Binder |
| --- | --- |
| 0.3 µM | VDFCGLYHWPICYQ (cysteine pairing not given here; also: biotinylated, site not given here) [Peptide-8] |

biological target: T4, TBD-17 (HC S104A); test: as above; remark: another data set of the same source
Method: as §1

| IC50 | Binder |
| --- | --- |
| 0.87 µM | VDFCGLYHWPICYQ (cysteine pairing not given here; also: biotinylated, site not given here) [Peptide-8] |

biological target: T5, TBD-22 (HC D109A); test: as above; remark: another data set of the same source
Method: as §1

| IC50 | Binder |
| --- | --- |
| 0.08 µM | VDFCGLYHWPICYQ (cysteine pairing not given here; also: biotinylated, site not given here) [Peptide-8] |

biological target: T6, TBD-21 (HC F108A); test: as above; remark: another data set of the same source
Method: as §1

| IC50 | Binder |
| --- | --- |
| 1.01 µM | VDFCGLYHWPICYQ (cysteine pairing not given here; also: biotinylated, site not given here) [Peptide-8] |

biological target: T7, TBD-11 (HC R98A); test: as above; remark: another data set of the same source
Method: as §1

| IC50 | Binder |
| --- | --- |
| 0.62 µM | VDFCGLYHWPICYQ (cysteine pairing not given here; also: biotinylated, site not given here) [Peptide-8] |

biological target: T8, CD3 (human, UniProt P07766 23-126, limits assumed, biotinylated); test: ELISA; biotinylated CD3 on neutravidin plates, PC titrated, HRP secondary
T8 construct: also called biotinylated CD3; CD3-biotin
T8 sequence (P07766 23-126 limits assumed): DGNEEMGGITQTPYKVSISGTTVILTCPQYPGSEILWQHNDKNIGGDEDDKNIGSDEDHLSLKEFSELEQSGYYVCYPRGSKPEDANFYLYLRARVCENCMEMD
Method: (§2) TROP2 TCEs and masked polypeptide complexes (PCs) were evaluated for their ability to bind TROP2 and CD3 by ELISA. […] The TCE or PC constructs diluted in buffer were then added to the antigen coated plates. Binding was measured using a standard horse radish peroxidase secondary antibody. The concentration of TCE or PC required to achieve 50% maximal signal (EC₅₀) was calculated.

| EC50 | Binder |
| --- | --- |
| 0.283 µM | B1 |
| 0.0602 µM | B2 |
| 0.136 µM | B3 |
| 0.097 µM | B4 |
| 2.92 µM | B5 |
| 1.3 µM | B6 |
| 0.0607 µM | B7 |
| 0.454 µM | B8 |
| 0.0773 µM | B9 |
| 0.41 µM | B10 |
| 0.03 µM | B11 |
| 0.242 µM | B12 |
| 0.0776 µM | B13 |
| 0.23 µM | B14 |
| 0.555 µM | B15 |

biological target: T1, Human TROP2 Full length; test: cell-based or functional assay

| Binder | H292 Cytotoxicity EC50 (pM) | HCT116 Cytotoxicity EC50 (pM) |
| --- | --- | --- |
| B1 | > 100000 pM | – |
| B2 | 12200 pM | – |
| B3 | 13700 pM | > 100000 pM |
| B4 | > 100000 pM | – |
| B5 | > 100000 pM | – |
| B6 | > 100000 pM | > 100000 pM |
| B7 | 12700 pM | – |
| B8 | > 100000 pM | – |
| B9 | 51000 pM | – |
| B10 | > 100000 pM | – |
| B11 | > 100000 pM | > 100000 pM |
| B12 | 98300 pM | – |
| B13 | > 100000 pM | – |
| B14 | 47000 pM | – |
| B15 | > 100000 pM | – |

Biological target: T2, Cyno TROP2 Full length
Test: cell-based or functional assay

| CyTROP2 HEK293 EC50 (pM) | Binder |
| --- | --- |
| 16500 pM | B1 |
| 665 pM | B3 |
| > 870000 pM | B5 |
| > 100000 pM | B6 |
| 1220 pM | B7 |
| > 100000 pM | B8 |
| 79300 pM | B10 |
| > 100000 pM | B11 |
| 37700 pM | B12 |
| 5130 pM | B14 |
| 45600 pM | B15 |

biological target: T3, Human TROP2 ECD (31-274 AA); test: ELISA; biotinylated TROP2 on neutravidin plates, PC titrated, HRP secondary
Method: as §2

| EC50 | Binder |
| --- | --- |
| 0.828 µM | B1 |
| 0.63 µM | B2 |
| 1.09 µM | B3 |
| 4.01 µM | B4 |
| 1.47 µM | B5 |
| 1.51 µM | B6 |
| 0.587 µM | B7 |
| 1.22 µM | B8 |
| 1.14 µM | B9 |
| 1.16 µM | B10 |
| 2.08 µM | B11 |
| 1.21 µM | B12 |
| 3.02 µM | B13 |
| 1.38 µM | B14 |
| 2.55 µM | B15 |
